Measurements published in paper PMC8420576 (The EMBO Journal, 2021).

Target: T1, SARS-CoV-2 Spike RBD (residues 334–527), C-terminal Avi-His6 tag, biotinylated (SARS-CoV-2, reference (Wuhan-Hu-1) …, UniProt P0DTC2, biotin on the Avi-tag)
T1 construct: also called biotinylated RBD; SARS‐CoV‐2 RBD‐loaded sensors
Assay: BLI
Conditions: both partners purified

B1: VHH antibody Re9F06 (VHH)
VHH: QVQLVESGGGLVQAGGSLRLSCAASGRTFSNDALGWFRQAPRKEREFVAAINWNSGTYYADSVKGRFTISRDNAKNTVYLQMNSLKPEDTAVYSCAAASDYGLPREDFLYDYWGQGTQVTVSS
notes: also called fold-promoter Re9F06; fold-promoting nanobody Re9F06
Kd: 4 nM
